Test results published in patent US9186390B2, “Methods and uses of TIE2 binding and/or activating agents” (Sunnybrook Health Sciences Center, priority 2010, dated 2015).

Test system: AT derm mice (pTek-tTA:pTetOS-Tek)
Assay: Enforced expression of Ang1 or Ang2 in AT derm mice (triple transgenic)
Assay type: in vivo
Conditions: for atopic dermatitis phenotype (erythema, ear micro-haemorrhages, tail scaly plaque): transgenic overexpression in the vasculature of AT derm mice
Excerpt: Briefly, construction of the driver transgene, pTek-tTA, and the responder transgenes, pTetOS-Tek, pTetos-Ang1, and pTetos-Ang2 have been described previously. All transgenic lines were maintained and genotyped as previously described (Voskas et al. (2005) Am. J. Pathol. 166(3):843-855, Ward et al. (2004) Am. J. Pathol. 165(3):889-899, Bureau et al. (2006) Am. J. Physiol. Heart Circ. Physiol. 291(2):H948-965). Males were housed with a single female for 14 to 20 days and then separated into individual cages. CD1 mice (an outbred mouse line) were maintained in a barrier facility. All adult mice used in these studies were 2 to 6 months old.
The present inventors have previously shown that enforced overexpression of the Tie2 receptor in the vasculature results in an inflammatory skin phenotype in mice (FIG. 3A) that is consistent with many hallmarks of human atopic dermatitis/psoriasis (Voskas et al. (2005) Am. J. Pathol. 166(3), 843-855, Voskas et al. (2009) J. Leukoc. Biol. 84(1), 59-67). […] Using common mouse transgenic approaches, a system was devised in which the impact of enforced expression of Ang1 or Ang2 could be assessed in this mouse model of inflammatory skin disease. This is the first such system where the implications of Ang1 or Ang2 expression can be simultaneously addressed in a single pathological state. […] This was marked by a gross reduction in snout, conjunctiva, ear and paw erythema (FIGS. 3C-E).

Row | Molecule | atopic dermatitis phenotype (erythema, ear micro-haemorrhages, tail scaly plaque) | epidermal hyperplasia and dermal leukocyte infiltration (histology) (triple transgenic mice)
1 | Ang2: Angiopoietin 2, natural antagonist of Ang1, overexpressed from the pTetOS-Ang2 transgene | exacerbated all of the noted phenotypic hallmarks | –
2 | Ang1: Angiopoietin 1, Tie2 ligand, overexpressed in the vasculature from the pTetOS-Ang1 transgene (protein, UniProt Q15389 16-498, looked up) Angiopoietin-1: HIGCSNQRRSPENSGRRYNRIQHGQCAYTFILPEHDGNCRESTTDQYNTNALQRDAPHVEPDFSSQKLQHLEHVMENYTQWLQKLENYIVENMKSEMAQIQQNAVQNHTATMLEIGTSLLSQTAEQTRKLTDVETQVLNQTSRLEIQLLENSLSTYKLEKQLLQQTNEILKIHEKNSLLEHKILEMEGKHKEELDTLKEEKENLQGLVTRQTYIIQELEKQLNRATTNNSVLQKQQLELMDTVHNLVNLCTKEGVLLKGGKREEEKPFRDCADVYQAGFNKSGIYTIYINNMPEPKKVFCNMDVNGGGWTVIQHREDGSLDFQRGWKEYKMGFGNPSGEYWLGNEFIFAITSQRQYMLRIELMDWEGNRAYSQYDRFHIGNEKQNYRLYLKGHTGTAGKQSSLILHGADFSTKDADNDNCMCKCALMLTGGWWFDACGPSNLNGMFYTAGQNHGKLNGIKWHYFKGPSYSLRSTTMMIRPLDF | dramatic amelioration of disease | resolution of epidermal hyperplasia
